Measured values reported in the supplement of paper PMC11246515.
± gives the standard deviation of the averaged measurements.

Assay: total protein half-life in vivo (active degradation + dilution); higher = more stable protein
[1] = E. coli NCM3722 delta-clpP delta-lon delta-hslV, growth: N-lim chemostat, doubling time 6 h
[2] = wild type E. coli NCM3722, growth: P-lim chemostat, doubling time 6 h
[3] = wild type E. coli NCM3722, growth: C-lim chemostat, doubling time 3 h
[4] = wild type E. coli NCM3722, growth: C-lim chemostat, doubling time 12 h
[5] = wild type E. coli NCM3722, growth: N-lim chemostat, doubling time 6 h
[6] = wild type E. coli NCM3722, growth: P-lim chemostat, doubling time 12 h
[7] = E. coli NCM3722 delta-clpP, growth: N-lim chemostat, doubling time 6 h
[8] = E. coli NCM3722 delta-hslV, growth: N-lim chemostat, doubling time 6 h
[9] = E. coli NCM3722 delta-lon, growth: N-lim chemostat, doubling time 6 h
[10] = E. coli NCM3722 delta-smpB, growth: N-lim chemostat, doubling time 6 h
[11] = wild type E. coli NCM3722, growth: C-lim chemostat, doubling time 6 h
[12] = wild type E. coli NCM3722, growth: N-lim chemostat, doubling time 12 h

Row | Sequence | total protein half-life in vivo [1] [h] | total protein half-life in vivo [2] [h] | total protein half-life in vivo [3] [h] | total protein half-life in vivo [4] [h] | total protein half-life in vivo [5] [h] | total protein half-life in vivo [6] [h] | total protein half-life in vivo [7] [h] | total protein half-life in vivo [8] [h] | total protein half-life in vivo [9] [h] | total protein half-life in vivo [10] [h] | total protein half-life in vivo [11] [h] | total protein half-life in vivo [12] [h]
1 | MAQLKFNSILVVCTGNICRSPIGERLLRKRLPGVKVKSAGVHGLVKHPADATAADVAANHGVSLEGHAGRKLTAEMARNYDLILAMESEHIAQVTAIAPEVRGKTMLFGQWLEQKEIPDPYRKSQDAFEHVYGMLERASQEWAKRLSR [P0ACZ2] | 4.76 ± 0.95 | 2.72 |  |  |  |  |  |  |  |  |  | 
2 | MSDYQMFEVQVSQVEPLTEQVKRFTLVATDGKPLPAFTGGSHVIVQMSDGDNQYSNAYSLLSSPHDTSCYQIAVRLEENSRGGSRFLHQQVKVGDRLTISTPNNLFALIPSARKHLFIAGGIGITPFLSHMAELQHSDVDWQLHYCSRNPESCAFRDELVQHPQAEKVHLHHSSTGTRLELARLLADIEPGTHVYTCGPEALIEAVRSEAARLDIAADTLHFEQFAIEDKTGDAFTLVLARSGKEFVVPEEMTILQVIENNKAAKVECLCREGVCGTCETAILEGEADHRDQYFSDEERASQQSMLICCSRAKGKRLVLDL |  |  | 3.41 |  |  |  |  |  |  |  |  | 
3 | MPVFALLALVAYSVSLALIVPGLLQKNGGWRRMAIISAVIALVCHAIALEARILPDGDSGQNLSLLNVGSLVSLMICTVMTIVASRNRGWLLLPIVYAFALINLALATFMPNEYITHLEATPGMLVHIGLSLFSYATLIIAALYALQLAWIDYQLKNKKLAFNQEMPPLMSIERKMFHITQIGVVLLTLTLCTGLFYMHNLFSMENIDKAVLSIVAWFVYIVLLWGHYHEGWRGRRVVWFNVAGAVILTLAYFGSRIVQQLIS |  |  |  | 13.6 | 6.45 | 15.5 |  |  |  |  |  | 
4 | MDNVELSPATRWGMIATGLLQGLVCYLLIAWLSGKNHSWIVYGVPATVAFSSVLLFSVISFKQKRLWGWLALVFIATLGMSGWLKWQTDGMNPWRAEKALWDFGCYLLLMAMLLLPWIQQSLRIRNDSSRYRYFYQSVWHNVLILLVIFLANGLTWLVLLLWSELFKLVGITFFNTLFFATDWFIYLTLGLVTALAVILARTQSRLIDSIQKLFTLIATGLLPLVSLLTLMFIITLPFTGLSAISRHISAAGLLLTLAFLQLILMAIVRDPQKASLPWTGPLRCLIKTALLVAPLYVFVAAWALWLRVAQYGWTVDRLQGVLAVLVLLVWSLGYFVSIVWRKGQNPVVLQGKVNLAVSLLVLVILVLLNSPVLDSMRISVNSHMARYQSGKNTSDQVTIYMLEQSGRYGRAALESLKSDAGFMKDPKRARDLLMALDGEQHLQQQVSEKVLADNVLIAPGSVKPDATFWSALIQDRYNVMTCIEKDACVLVEQDLNSDGQAERILFAFNDDRVIVYGFDSDRKEWDALDMSLLPNEITKEKLLTAAKDGKLGTKPKAWRDLVVDGERLNVNLNE | 4.79 |  | 3.78 | 6.23 |  | 3.39 | 3.51 | 3.21 | 3.27 | 2.97 ± 0.52 | 3.86 ± 0.18 | 
5 | MSIAVTTTDPTNTGVSTTSSSSLTGSNAADLQSSFLTLLVAQLKNQDPTNPMENNELTSQLAQISTVSGIEKLNTTLGSISGQIDNSQSLQASNLIGHGVMIPGTTVLAGTGSEEGAVTTTTPFGVELQQAADKVTATITDKNGAVVRTIDIGELTAGVHSFTWDGTLTDGSTAPNGSYNVAISASNGGTQLVAQPLQFALVQGVIRGNSGNTLDLGTYGTTTLDEVRQII | 3.99 ± 0.28 |  | 0.36 ± 0.076 | 0.363 |  |  |  |  |  |  | 1.65 | 
6 | MPAVIDKALDFIGAMDVSAPTPSSMNESTAKGIFKYLKELGVPASAADITARADQEGWNPGFTEKMVGWAKKMETGERSVIKNPEYFSTYMQEELKALV | 1.25 ± 0.38 | 0.402 | 0.644 ± 0.18 |  | 0.681 ± 0.18 | 1.25 | 0.88 |  |  | 0.51 | 0.706 | 0.727 ± 0.045
7 | MRKFIFVLLTLLLVSPFSFAMKGIIWQPQNRDSQVTDTQWQGLMSQLRLQGFDTLVLQWTRYGDAFTQPEQRTLLFKRAAAAQQAGLKLIVGLNADPEFFMHQKQSSAALESYLNRLLAADLQQARLWSAAPGITPDGWYISAEIDDLNWRSEAARQPLLTWLNNAQRLISDVSAKPVYISSFFAGNMSPDGYRQLLEHVKATGVNVWVQDGSGVDKLTAEQRERYLQASADCQSPAPASGVVYELFVAGKGKTFTAKPKPDAEIASLLAKRSSCGKDTLYFSLRYLPVAHGILEY | 5.13 ± 0.23 | 5.96 ± 0.13 |  |  | 5.78 ± 0.16 | 12.5 ± 0.58 | 6.05 ± 0.4 |  | 6.25 ± 0.24 | 5.08 ± 1.3 | 6.17 ± 0.52 | 11.8 ± 1.6
8 | MRFSRFIIGLTSCIAFSVQAANVDEYITQLPAGANLALMVQKVGASAPAIDYHSQQMALPASTQKVITALAALIQLGPDFRFTTTLETKGNVENGVLKGDLVARFGADPTLKRQDIRNMVATLKKSGVNQIDGNVLIDTSIFASHDKAPGWPWNDMTQCFSAPPAAAIVDRNCFSVSLYSAPKPGDMAFIRVASYYPVTMFSQVRTLPRGSAEAQYCELDVVPGDLNRFTLTGCLPQRSEPLPLAFAVQDGASYAGAILKDELKQAGITWSGTLLRQTQVNEPGTVVASKQSAPLHDLLKIMLKKSDNMIADTVFRMIGHARFNVPGTWRAGSDAVRQILRQQAGVDIGNTIIADGSGLSRHNLIAPATMMQVLQYIAQHDNELNFISMLPLAGYDGSLQYRAGLHQAGVDGKVSAKTGSLQGVYNLAGFITTASGQRMAFVQYLSGYAVEPADQRNRRIPLVRFESRLYKDIYQNN | 6.48 ± 0.36 | 6.25 ± 0.55 | 3.24 ± 0.54 | 12.7 ± 0.72 | 6.15 ± 0.52 | 12.6 ± 0.42 | 6.25 ± 0.35 | 6.87 ± 0.72 | 6.194 ± 0.044 | 6.051 ± 0.02 | 6.21 ± 0.86 | 13.4 ± 0.64
9 | MKSNRQARHILGLDHKISNQRKIVTEGDKSSVVNNPTGRKRPAEK | 1.25 ± 0.066 | 0.899 ± 0.2 | 1.64 ± 0.16 | 1.81 ± 0.55 | 1.08 | 1.34 ± 0.98 | 0.873 | 1.04 ± 0.075 | 1.37 ± 0.39 | 0.657 | 1.85 | 1.74 ± 0.51
10 | MEQAHTQLIAQLNERILAADNTPLYIKFAETVKNAVRSGVLEHGNILPGERDLSQLTGVSRITVRKAMQALEEEGVVTRSRGYGTQINNIFEYSLKEARGFSQQVVLRGKKPDTLWVNKRVVKCPEEVAQQLAVEAGSDVFLLKRIRYVDEEAVSIEESWVPAHLIHDVDAIGISLYDYFRSQHIYPQRTRSRVSARMPDAEFQSHIQLDSKIPVLVIKQVALDQQQRPIEYSISHCRSDLYVFVCEE [P0ACM5] | 5.72 ± 0.0036 | 4.28 ± 0.053 | 2.75 ± 0.084 | 8.6 ± 0.18 | 4.04 ± 0.17 | 7.99 ± 0.19 |  | 4.14 ± 0.2 | 4.55 ± 0.12 | 3.91 ± 0.15 | 4.84 ± 0.37 | 6.99 ± 0.2
11 | MANSITADEIREQFSQAMSAMYQQEVPQYGTLLELVADVNLAVLENNPQLHEKMVNADELARLNVERHGAIRVGTAQELATLRRMFAIMGMYPVSYYDLSQAGVPVHSTAFRPIDDASLARNPFRVFTSLLRLELIENEILRQKAAEILRQRDIFTPRCRQLLEEYEQQGGFNETQAQEFVQEALETFRWHQSATVDEETYRALHNEHRLIADVVCFPGCHINHLTPRTLDIDRVQSMMPECGIEPKILIEGPPRREVPILLRQTSFKALEETVLFAGQKQGTHTARFGEIEQRGVALTPKGRQLYDDLLRNAGTGQDNLTHQMHLQETFRTFPDSEFLMRQQGLAWFRYRLTPSGEAHRQAIHPGDDPQPLIERGWVVAQPITYEDFLPVSAAGIFQSNLGNETQTRSHGNASREAFEQALGCPVLDEFQLYQEAEERSKRRCGLL | 4.93 ± 0.48 | 3.15 ± 0.84 | 1.93 ± 0.29 | 5.086 ± 0.02 | 3.41 ± 0.23 | 6.32 ± 0.42 | 4.86 ± 2.3 | 3.34 | 3.29 ± 0.28 | 3.09 ± 0.13 | 3.5 ± 0.098 | 4.83 ± 0.42
12 | MSQSEFDSALPNGIGLAPYLRMKQEGMTENESRIVEWLLKPGNLSCAPAIKDVAEALAVSEAMIVKVSKLLGFSGFRNLRSALEDYFSQSEQVLPSELAFDEAPQDVVNKVFNITLRTIMEGQSIVNVDEIHRAARFFYQARQRDLYGAGGSNAICADVQHKFLRIGVRCQAYPDAHIMMMSASLLQEGDVVLVVTHSGRTSDVKAAVELAKKNGAKIICITHSYHSPIAKLADYIICSPAPETPLLGRNASARILQLTLLDAFFVSVAQLNIEQANINMQKTGAIVDFFSPGALK [P0ACS7] | 6.33 ± 0.37 | 6.09 ± 0.2 | 3.07 ± 0.4 | 14.6 ± 1.1 | 5.77 ± 0.44 | 12.5 ± 1.1 | 6 ± 0.24 | 5.5 ± 0.74 | 5.71 | 5.56 ± 0.55 | 6.86 ± 0.23 | 11.3 ± 1.8
